Source: patent US20230250168A1 (MABWELL SHANGHAI BIOSCIENCE, published 2023)

What was measured:
[1] = biological target: T1, antigen human CLDN18.2, His-tagged (human, UniProt P56856-2 1-261, limits assumed); test: BLI (Fortebio), His-tagged antigen on NTA probe; ratio to 16K15-xiIgG
T1 construct: Recombinant antigen used in the Fortebio assay (His-tagged, captured on NTA probe); also called His-tagged antigen; not shown: His tag
Method: (§1) The binding kinetic parameters of the chimeric antibodies and the humanized antibodies thereof to the antigen human CLDN18.2 were analyzed by a Fortebio (BLITZ pro1.1.0.28) instrument. Before performing the assay, an NTA bioprobe was soaked in PBS for 10 min, and the probe was then placed in PBS containing 100 nM antigen for 300 s to capture the His-tagged antigen. The probe was further subjected to a binding reaction with 100 nM antibody for a binding time of 400 s, and the probe was then transferred to PBS and subjected to a dissociation reaction for 600 s. When the assay was finished, data from which the response value of a blank control had been deducted were fitted to a 1:1 Langmuir binding model using software, and then the kinetic constants for antigen-antibody binding were calculated.

[2] = biological target: T1, antigen human CLDN18.2, His-tagged; test: SPR (BIAcore), antibody captured by anti-human Fc, antigen as analyte
Method: Referring to the instructions provided in the Human Antibody Capture Kit (cat No. BR-1008-39, Lot 10261753) from GE Healthcare, the analytical channel and the control sample channel on a CM5 sensor chip were first saturated and coupled with the maximum amount of anti-human Fc antibody, then buffers containing anti-human CLDN18.2 chimeric antibodies, humanized antibodies or a control antibody IMAB362 at 7.5 μg/ml were allowed to flow through the analytical channel and uniformly distribute. Finally, antigen samples diluted in gradient (the initial concentration was 20 nM and diluted by 1:3 to get 8 concentrations, and the concentration 0.741 nM was set to be repeated) were allowed to flow through both the analytical channel and the sample channel, and the photoreactions upon the binding of antibody to antigen were measured. Subsequently, the association constant Kon and dissociation constant Koff and affinity constant KD of each antibody were finally obtained by instrument software fitting analysis.

[3] = biological target: T1, antigen human CLDN18.2, His-tagged; test: BLI (Fortebio), His-tagged antigen on NTA probe, 100 nM antibody, 1:1 fit
Method: as §1

[4] = biological target: human CLDN18.2 expressed on cell surfaces (human) (UniProt P56856); test: cell-based or functional assay
[5] = biological target: human CLDN18.1 expressed on cell surfaces (human) (UniProt P56856); test: cell-based or functional assay
[6] = biological target: T2, human CLDN18.2 expressed on cell surfaces (human, UniProt P56856-2 1-261); test: cell-based or functional assay
[7] = biological target: T2, human CLDN18.2 expressed on cell …; test: cell-based or functional assay; remark: listed apart in the source

| Koff/Koff(Xi-IgG) [1] | Kd [2] [nM] | koff [2] [s⁻¹] | kon [2] [M⁻¹ s⁻¹] | Kd [3] [nM] | Response [3] | koff [3] [s⁻¹] | kon [3] [M⁻¹ s⁻¹] | Human IFNγ detected in the supernatants of the culture systems (CAR-T cells with CHO-claduin18.2) [4] | Human IFNγ detected in the supernatants of the culture systems (CAR-T cells with CHO-claduin18.1) [5] | ADCC reporter EC50 (Jurkat NFAT-luciferase effector cells), BxPC3 target cells [6] [nM] | ADCC reporter EC50 (Jurkat NFAT-luciferase effector cells), CHOK1 target cells [6] [nM] | ADCC reporter EC50 (Jurkat NFAT-luciferase effector cells), NCI-N87 target cells [6] [nM] | CDC EC50, BxPC3 cells stably expressing human CLDN18.2 (CCK-8) [7] [nM] | CDC EC50, CHOK1 cells stably expressing human CLDN18.2 (CCK-8) [7] [nM] | CDC EC50, NCI-N87 cells stably expressing human CLDN18.2 (CCK-8) [7] [nM] | Binder |
| --- | --- | --- | --- | --- | --- | --- | --- | --- | --- | --- | --- | --- | --- | --- | --- | --- |
|  |  |  |  |  |  |  |  | 79200 | 60300 |  |  |  |  |  |  | 16k15 (16K15-hz22) scfv, as CAR on T cells (scFv, not shown: small tags and cut ends) scFv: EVQLVESGGGLVQPGGSLRLSCAGSGITLSTYAMSWVRQAPGKGLEWVSSIISGGITYYLDSVKGRFTISRDNAKNTLYLQMSSLRAEDTAVYYCARKYHGNALDYWGQGTLVTVSSGSTSGGGSGGGSGGGGSSDIVMTQSPDSLAVSLGERATINCKSSQSLLSSGNQRNYLTWYQQKPGQPPKKLIYWASTRESGVPDRFSGSGSGTDFTLTISSLQAEDLAVYYCQNNYFYPLTFGQGTKLEIK |
|  |  |  |  |  |  |  |  | 78900 | 4540 |  |  |  |  |  |  | 52E22 (52E22-hz12) scfv, as CAR on T cells (scFv, not shown: small tags and cut ends) scFv: QIQLVQSGSELKKPGASVKVSCKASGYTLTNYGMNWVRQAPGQGLEWMGWIRPNTGEPTYAEDFKGRFVFSLDTSVATAYLQITSLKAEDTAVYYCARLYRGNTLDNWGQGTLVTVSSGSTSGGGSGGGSGGGGSSDIVMTQSPDSLAVSLGERATINCKSSQNLLSSGNQRNYLTWYQQKPGQPPKLLIYWASTRESGVPDRFSGSGSGTDFTLTISSLQAEDLAVYYCQQGYSFPFTFGQGTKLEIK |

The remaining lines, values behind:

| Binder | Koff/Koff(Xi-IgG) [1] | Kd [2] [nM] | koff [2] [s⁻¹] | kon [2] [M⁻¹ s⁻¹] | Kd [3] [nM] | Response [3] | koff [3] [s⁻¹] | kon [3] [M⁻¹ s⁻¹] | Human IFNγ detected in the supernatants of the culture systems (CAR-T cells with CHO-claduin18.2) [4] | Human IFNγ detected in the supernatants of the culture systems (CAR-T cells with CHO-claduin18.1) [5] | ADCC reporter EC50 (Jurkat NFAT-luciferase effector cells), BxPC3 target cells [6] [nM] | ADCC reporter EC50 (Jurkat NFAT-luciferase effector cells), CHOK1 target cells [6] [nM] | ADCC reporter EC50 (Jurkat NFAT-luciferase effector cells), NCI-N87 target cells [6] [nM] | CDC EC50, BxPC3 cells stably expressing human CLDN18.2 (CCK-8) [7] [nM] | CDC EC50, CHOK1 cells stably expressing human CLDN18.2 (CCK-8) [7] [nM] | CDC EC50, NCI-N87 cells stably expressing human CLDN18.2 (CCK-8) [7] [nM] |
| --- | --- | --- | --- | --- | --- | --- | --- | --- | --- | --- | --- | --- | --- | --- | --- | --- |
| 16K15-xiIgG (antibody, V domains shown, Murine variable regions on human IgG1 / kappa constant regions; also called 16K15 chimeric antibody) VH: EVMLVESGGGLVRPGGSLKLSCAGSGITLSTYAMSWVRQTPERRLEWVASIISGGITYYLDSVKGRFTISRDNARNILYLQMSSLRSEDTAIYYCARKYHGNALDYWGQGTSVTVSL VL: DIVMTQSPSSLPVTAGETVTMRCKSSQSLLNSGNQRNYLTWYQRKPGQPPKKLIYWASTRESGVPDRFTGSGSGTDFTLTISGVQAEDLAVYYCQNNYFYPLTFGAGTKLELKR | 1 | 13.5 | 0.00144 | 107000 | 0.557 | 0.261 | 0.000154 | 276000 |  |  |  |  |  |  |  |  |
| 8K13 (8K13-hz24) scfv, as CAR on T cells (scFv, not shown: small tags and cut ends) scFv: QVQLVQSGAEVKKPGSSVKVSCKASGYAFSNYWMNWVRQAPGQGLEWMGQIYPGSGDTKYSGKFQSRVTITADKSTNTAYMELSSLRSEDTAVYYCARFYYGNVMDYWGQGTLVTVSSGSTSGGGSGGGSGGGGSSDIVLTQSPDSLAVSLGERATINCKSSQTLLSGGNQKNYLTWYQQKPGQPPKLLIYWASTRESGVPDRFSGSGSGTDFTLTISSLQAEDLAVYYCQQGYSYPLTFGQGTKLEIK |  |  |  |  |  |  |  |  | 75500 | 4670 |  |  |  |  |  |  |
| 16K15-hz22 (antibody, human IgG1, V domains shown, Humanized; also called 16K15-hz22 IgG; 16K15-22 IgG) VH: EVQLVESGGGLVQPGGSLRLSCAGSGITLSTYAMSWVRQAPGKGLEWVSSIISGGITYYLDSVKGRFTISRDNAKNTLYLQMSSLRAEDTAVYYCARKYHGNALDYWGQGTLVTVSS VL: DIVMTQSPDSLAVSLGERATINCKSSQSLLSSGNQRNYLTWYQQKPGQPPKKLIYWASTRESGVPDRFSGSGSGTDFTLTISSLQAEDLAVYYCQNNYFYPLTFGQGTKLEIK | 1.86 | 9.85 | 0.000563 | 57100 | 1.1 | 0.266 | 0.000286 | 259000 |  |  | 0.176 | 0.712 | 0.0677 | 12.2 | 5.2 | 17.4 |
